Data as given in US5763571.

Target: c-Ha-Ras bound to GTP (Ras-GTP) (Homo sapiens (Human)) (UniProt P01112)
Experiment: assay not given

Raf(1-137)
fold reduction in binding affinity against Raf(1-149): 10 fold
